Tests used:
[1] = biological target: fully human monoclonal agonistic anti-TRAIL-R2 antibody KMTR2 (human)
[2] = biological target: T1, ecTRAIL-R2:Fc fusion protein (human, UniProt O14763); test: SEC; antibody mixed with ecTRAIL-R2:Fc in PBS at a molar ratio of 1:1, 30 min 37 °C; Superdex 200 10/300 GL in D-PBS(-); details: both partners purified
T1 construct: TRAIL receptor 2 (TRAIL-R2, DR5), human, extracellular region, residues Ala54-Lys181; also called ecTRAIL-R2 fused with Fc; soluble TRAIL-R2 fused with the Fc region of IgG; source: CHO cells, purified (HiTrap rProtein A FF); not shown: Fc (human IgG1), C-terminal, kept

[3] = biological target: T2, endogenous TRAIL-R2 in Colo205 cells (human (endogenous in Colo205), UniProt O14763); test: immunostaining of cells or tissue; Colo205 cells incubated with gel filtration fractionated monomeric antibody, 100 ng/mL, 1.5 h 37 °C; Alexa 488-labeled anti-human IgG Fab; confocal microscopy; details: one partner purified
T2 construct: TRAIL receptor 2 (TRAIL-R2, DR5), endogenous on the human colorectal adenocarcinoma cell line Colo205; also called DR5; membrane TRAIL-R2; source: endogenous, on Colo205 cells

[4] = biological target: T3, extracellular region of TRAIL-R2 (ecTRAIL-R2) (human, UniProt O14763); test: SEC-MALS; ecTRAIL-R2 mixed with excess KMTR2-Fab, RT 1 h; Superdex 200 HR 10/30, 20 mM HEPES pH 7.2, 0.2 M NaCl; multi-angle light scattering (mini-DAWN); details: both partners purified
T3 construct: TRAIL receptor 2 (TRAIL-R2, DR5), human, extracellular region, residues Ala54-Lys181; also called DR5; source: CHO cells as ecTRAIL-R2:Fc fusion, purified (rProtein A), digested with enterokinase, cation-exchange chromatography; not shown: Fc (human IgG1), C-terminal, cleaved

## fully human monoclonal agonistic anti-TRAIL-R2 antibody KMTR2
[1]
  inhibition of the proliferation of Colo205 cells (MTS), 1-100 ng/mL, without cross-linking reagent: 6 to 7 ng/mL

B1: KMTR2 LkN53R mutant (Asn53 to Arg in the light kappa chain) (antibody, V domains shown)
VH: QVQLVQSGAEMKKPGASVKVSCKTSGYTFTNYKINWVRQAPGQGLEWMGWMNPDTDSTGYPQKFQGRVTMTRNTSISTAYMELSSLRSEDTAVYYCARSYGSGSYYRDYYYGMDVWGQGTTVTVSS
VL: EIVLTQSPATLSLSPGERATLSCRASQSVSSYLAWYQQKPGQAPRLLIYDASRRATGIPARFSGSGSGTDFTLTISSLEPEDFAVYYCQQRSNWPLTFGGGTKVEIK
notes: as the heavy chain of m5; Fab part (Gln1-Ser226) in PDB 3X3F and 3X3G; as the light kappa chain of m5 (Glu1-Cys214 in PDB 3X3F and 3X3G) with Asn53 changed to Arg; Whole IgG made from the N5KG4-KMTR2 vector by site-directed mutagenesis; copies: 2 + 2
[2]
  binding result: binds
[3]
  binding result: binds

B2: Fab fragment derived from KMTR2 (KMTR2-Fab) (Fab, V domains shown)
VH: QVQLVQSGAEMKKPGASVKVSCKTSGYTFTNYKINWVRQAPGQGLEWMGWMNPDTDSTGYPQKFQGRVTMTRNTSISTAYMELSSLRSEDTAVYYCARSYGSGSYYRDYYYGMDVWGQGTTVTVSS
VL: EIVLTQSPATLSLSPGERATLSCRASQSVSSYLAWYQQKPGQAPRLLIYDASNRATGIPARFSGSGSGTDFTLTISSLEPEDFAVYYCQQRSNWPLTFGGGTKVEIK
notes: heavy chain of KMTR2-Fab; light kappa chain of KMTR2; Fully human monoclonal antibody from KM mice; source: papain digestion of recombinant KMTR2, purified by cation-exchange chromatography
[4]
  stoichiometry N: 1
